Test results: PMC8185224 (EBioMedicine, 2021)

B1: recombinant murine D-dopachrome tautomerase (natural protein, UniProt O35215 1-118, looked up)
chain: MPFVELETNLPASRIPAGLENRLCAATATILDKPEDRVSVTIRPGMTLLMNKSTEPCAHLLVSSIGVVGTAEQNRTHSASFFKFLTEELSLDQDRIVIRFFPLEAWQIGKKGTVMTFL
notes: D-dopachrome tautomerase (DDT), murine; also called rmDDT; murine DDT; source: E. coli BL21(DE3), pET20b(+), purified (Q sepharose, phenyl sepharose, Superdex75 SEC)
B2: recombinant human D-dopachrome tautomerase (natural protein, UniProt P30046 1-118, looked up)
chain: MPFLELDTNLPANRVPAGLEKRLCAAAASILGKPADRVNVTVRPGLAMALSGSTEPCAQLSISSIGVVGTAEDNRSHSAHFFEFLTKELALGQDRILIRFFPLESWQIGKIGTVMTFL
notes: D-dopachrome tautomerase (DDT), human; The protein was active as a tautomerase, so the initiator methionine is probably removed (surmise); also called rhDDT; DDT; source: E. coli BL21(DE3), pET20b(+), purified (Q sepharose, phenyl sepharose, Superdex75 SEC)

Biological target: the molecule itself
Assay: SEC; Superdex75 column in 20 mM sodium phosphate buffer, pH 8.0; last step of the purification

| Protein | stoichiometry N |
| --- | --- |
| B1 | 3 |
| B2 | 3 |
